This test has as its target heat shock protein 70 (HSP70) (human (endogenous in PDAC cell lines and CAFs)) (UniProt P0DMV8).

This note sets out measurements from article PMC11641934.

UniProt P0DMV8, sequence (P0DMV8 whole entry): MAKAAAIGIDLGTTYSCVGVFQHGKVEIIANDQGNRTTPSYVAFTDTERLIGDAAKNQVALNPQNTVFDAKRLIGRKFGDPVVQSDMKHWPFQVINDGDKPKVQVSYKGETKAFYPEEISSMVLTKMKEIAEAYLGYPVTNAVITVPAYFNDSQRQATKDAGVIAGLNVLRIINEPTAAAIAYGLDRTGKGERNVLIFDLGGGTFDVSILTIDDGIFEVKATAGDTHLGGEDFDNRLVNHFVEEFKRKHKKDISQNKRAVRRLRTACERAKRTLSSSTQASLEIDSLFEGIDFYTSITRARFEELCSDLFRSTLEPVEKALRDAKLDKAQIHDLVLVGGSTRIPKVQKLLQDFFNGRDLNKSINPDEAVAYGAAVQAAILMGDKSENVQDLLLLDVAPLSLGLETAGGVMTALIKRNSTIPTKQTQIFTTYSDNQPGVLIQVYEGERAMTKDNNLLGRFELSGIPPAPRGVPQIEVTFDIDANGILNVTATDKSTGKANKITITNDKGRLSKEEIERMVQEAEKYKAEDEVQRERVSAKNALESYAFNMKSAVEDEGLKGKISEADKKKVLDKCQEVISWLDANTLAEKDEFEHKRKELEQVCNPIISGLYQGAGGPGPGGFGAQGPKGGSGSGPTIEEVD

With “His tagged-recombinant Pn-ASV with exon 21 (Pn 2-1) (from UniProt Q15063-5 22-809) (natural protein)”, the % rescue by recombinant Pn 2-1 in GEM-treated AsPC1 cells, CTRL siRNA group (counteracted by HSPA1A knockdown) came out at 11.2%; the % rescue by recombinant Pn 2-1 in GEM-treated BxPC3 cells, CTRL siRNA group (counteracted by HSPA1A knockdown) was 5.4%; the % rescue by recombinant Pn 2-1 in GEM-treated Panc1 cells, CTRL siRNA group (counteracted by HSPA1A knockdown) was 86.3%.
